Assay results reported in paper doi:10.1101/2024.07.16.603692.
pKd: −log10 of the molar value.

Target: CBP-UPF1-CH-HD (aa 115-914) (human) (UniProt Q92900)
Test: MST

In the case of “UPF2(770-1204) (from UniProt Q9HAU5 770-1204) (domain or fragment)”, the pKd was 8.00.
